# Results reported in patent publication US20150344570A1 (published 2015).
# Numbering of substitutions follows the chain as printed. Names may count otherwise. Where two headings read alike, the source gives them in different places.
# T1: FcgRIIa H (FcγRIIa type H) extracellular domain with C-terminal His tag (human, UniProt P12318 34-217)
# T1 construct: extracellular domain; also called FcγRIIa H; not shown: His tag attached to the C terminus
# T1 sequence (looked up): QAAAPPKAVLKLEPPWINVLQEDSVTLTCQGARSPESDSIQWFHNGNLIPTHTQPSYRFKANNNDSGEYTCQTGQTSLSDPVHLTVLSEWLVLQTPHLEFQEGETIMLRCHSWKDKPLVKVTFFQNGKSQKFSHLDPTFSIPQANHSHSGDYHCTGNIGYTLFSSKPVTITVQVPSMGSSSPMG
# T2: FcgRIIb (FcγRIIb) extracellular domain with C-terminal His tag (human, UniProt P31994 43-217)
# T2 construct: extracellular domain; not shown: His tag attached to the C terminus
# T2 sequence (looked up): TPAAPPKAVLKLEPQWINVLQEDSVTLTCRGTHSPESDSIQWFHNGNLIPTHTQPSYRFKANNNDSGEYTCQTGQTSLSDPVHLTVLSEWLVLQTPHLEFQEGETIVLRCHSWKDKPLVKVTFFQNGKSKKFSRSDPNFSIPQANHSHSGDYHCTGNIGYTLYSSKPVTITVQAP
# T3: FcgRIIa R (FcγRIIa type R) extracellular domain with C-terminal His tag (human, UniProt P12318 34-217)
# T3 construct: extracellular domain; also called FcγRIIa R; not shown: His tag attached to the C terminus
# T3 sequence (looked up): T1 sequence (looked up) with H134R
# T4: FcγRIIb extracellular domain with C-terminal His tag (human, UniProt P31994 43-217)
# T4 construct: extracellular domain; Soluble receptor expressed in FreeStyle293 cells, used as analyte in Biacore; also called FcgRIIb; 2b; not shown: His tag attached to the C terminus
# T4 sequence (looked up): T2 sequence (looked up)
# B1: H240-Kn061/H240-Hl071/L73-k0 variant with Y235P in H240-Kn061 (antibody, human IgG1, kappa)
# heavy 1: QDQLVQSGAEVKKPGASVKVSCKASGFNIKDTYIQWVRQAPGQGLEWMGRIDPLRKQTKYREKFEGRVTITADTSTNTAYMELSSLRSEDTAVYYCVRSGREFDYWGQGTLVTVSSASTKGPSVFPLAPSSKSTSGGTAALGCLVKDYFPEPVTVSWNSGALTSGVHTFPAVLQSSGLYSLSSVVTVPSSSLGTQTYICNVNHKPSNTKVDKKVEPKSCDKTHTCPPCPAPEYPWGPSVFLFPPKPKDTLMISRTPEVTCVVVDVSDEDPEVKFNWYVDGVEVHNAKTKPREEQYNATYRVVSVLTVLHQDWLNGKEYKCKVSNKALPAPIEKTISKAKGQPREPQVCTLPPSRDELTKNQVSLWCLVKGFYPSDIAVEWESNGQPENNYKTTPPVLDSDGSFFLYSKLTVDKSRWQQGNVFSCSVMHEALHNHYTQKSLSLSP
# heavy 2: QDQLVQSGAEVKKPGASVKVSCKASGFNIKDTYIQWVRQAPGQGLEWMGRIDPLRKQTKYREKFEGRVTITADTSTNTAYMELSSLRSEDTAVYYCVRSGREFDYWGQGTLVTVSSASTKGPSVFPLAPSSKSTSGGTAALGCLVKDYFPEPVTVSWNSGALTSGVHTFPAVLQSSGLYSLSSVVTVPSSSLGTQTYICNVNHKPSNTKVDKKVEPKSCDKTHTCPPCPAPELLGGPSVFLFPPKPKDTLMISRTPEVTCVVVDVSHEDPEVKFNWYVDGVEVHNAKTKPREEQYNSTYRVVSVLTVLHQDWLNGKEYKCKVSNDALPMPIEETISKAKGQPREPQVYTLPPSRCELTKNQVSLSCAVKGFYPSDIAVEWESNGQPENNYKTTPPVLDSDGSFFLVSKLTVDKSRWQQGNVFSCSVMHEALHNHYTQKSLSLSP
# light: DIQMTQSPSSLSASVGDRVTITCRASQDIHKYIAWYQQKPGQAPRLLIQYTSTLQPGVPSRFSGSGSGTDYTFTISSLQPEDIATYYCLQYEQLRTFGGGTKVEIKRTVAAPSVFIFPPSDEQLKSGTASVVCLLNNFYPREAKVQWKVDNALQSGNSQESVTEQDSKDSTYSLSSTLTLSKADYEKHKVYACEVTHQGLSSPVTKSFNRGEC
# notes: anti-epiregulin heterodimerized IgG1; also called H240-Kn061 Y235P
# B2: H240-Kn061/H240-Hl071/L73-k0 variant with Y235V in H240-Kn061 (antibody, human IgG1, kappa)
# heavy 1: B1 heavy 1 with P234V
# heavy 2: B1 heavy 2
# light: B1 light
# notes: anti-epiregulin heterodimerized IgG1; also called H240-Kn061 Y235V
# B3: H240-Kn061/H240-Hl071/L73-k0 variant with Y235Q in H240-Kn061 (antibody, human IgG1, kappa)
# heavy 1: B1 heavy 1 with P234Q
# heavy 2: B1 heavy 2
# light: B1 light
# notes: anti-epiregulin heterodimerized IgG1; also called H240-Kn061 Y235Q
# B4: GpH7-A5/GpH7-B3 variant S267_08L/GpL16-k0 (antibody, human IgG1, kappa)
# heavy 1: not shown
# heavy 2: not shown
# light: DIVMTQSPLSLPVTPGEPASISCQASESLVHSNRNTYLHWYLQKPGQSPQLLIYKVSNRFSGVPDRFSGSGSGTDFTLKISRVEAEDVGVYYCSQNTHVPPTFGQGTKVEIERTVAAPSVFIFPPSDEQLKSGTASVVCLLNNFYPREAKVQWKVDNALQSGNSQESVTEQDSKDSTYSLSSTLTLSKADYEKHKVYACEVTHQGLSSPVTKSFNRGEC
# notes: Heterodimerized antibody (He Ab) with the mutation in only one H chain; also called He Ab S267L
# B5: GpH7-A5/GpH7-B3 variant P271_08L/GpL16-k0 (antibody, human IgG1, kappa)
# heavy 1: not shown
# heavy 2: not shown
# light: B4 light
# notes: Heterodimerized antibody (He Ab) with the mutation in only one H chain; also called He Ab P271L
# B6: GpH7-A5/GpH7-B3 variant P271_01G/GpL16-k0 (antibody, human IgG1, kappa)
# heavy 1: not shown
# heavy 2: not shown
# light: B4 light
# notes: Heterodimerized antibody (He Ab) with the mutation in only one H chain; also called He Ab P271G
# B7: GpH7-A5/GpH7-B3 variant H268_05P/GpL16-k0 (antibody, human IgG1, kappa)
# heavy 1: not shown
# heavy 2: not shown
# light: B4 light
# notes: Heterodimerized antibody (He Ab) with the mutation in only one H chain; also called He Ab H268P
# Key:
# [1] = molecular target: T1, FcgRIIa H (FcγRIIa type H) …; assay: SPR (Biacore); KD of H240-Kn061/H240-Hl071/L73-k0 divided by KD of the variant
# Procedure: (§1) The antibodies were assessed for the binding to each FcgR. […] The resultant value was defined as relative KD, and used as an assessment indicator.
# (§2) Analysis of interaction between objective antibody and the FcγR was carried out using Biacore T100 (GE Healthcare), Biacore T200, Biacore A100, and Biacore 4000. HBS-EP+ (GE Healthcare) was used as the running buffer, and the measurement temperature was set to 25° C. Chips produced by immobilizing the antigen peptide by the amine coupling method to a Series S sensor Chip CM5 (GE Healthcare), chips produced by allowing preliminarily biotinylated antigen peptides to interact with and immobilize onto a Series S Sensor Chip SA (certified) (GE Healthcare), chips produced by immobilizing Protein L (ACTIGEN, BioVision) to Series S Sencor Chip CM5 (GE Healthcare), or chips produced by immobilizing Protein A/G (Thermo Scientific) to Series S Sencor Chip CM5 (GE Healthcare) were used. Antibodies of interest were captured onto these chips, and allowed to interact to each FcγR diluted with running buffer.
# [2] = molecular target: T2, FcgRIIb (FcγRIIb) extracellular domain …; assay: as above
# Procedure: as §1, §2
# [3] = molecular target: T3, FcgRIIa R (FcγRIIa type R) …; assay: as above
# Procedure: as §1, §2
# [4] = molecular target: T5, FcgRIIIa F (FcγRIIIa type F) extracellular domain with C-terminal His tag (human, UniProt P08637 17-208); assay: as above
# T5 construct: extracellular domain; also called FcγRIIIa F; 3aF; not shown: His tag attached to the C terminus
# Procedure: as §1, §2
# [5] = molecular target: T6, FcgRIIIa V (FcγRIIIa type V) extracellular domain with C-terminal His tag (human, UniProt P08637 17-208); assay: as above
# T6 construct: extracellular domain; also called FcγRIIIa V; not shown: His tag attached to the C terminus
# Procedure: as §1, §2
# [6] = molecular target: T2, FcgRIIb (FcγRIIb) extracellular domain …; assay: as above; remark: listed apart in the source
# [7] = molecular target: T5, FcgRIIIa F (FcγRIIIa type F) …; assay: as above; remark: listed apart in the source
# [8] = molecular target: T6, FcgRIIIa V (FcγRIIIa type V) …; assay: as above; remark: listed apart in the source
# [9] = molecular target: T7, FcγRIIIa extracellular domain with C-terminal His tag (human, UniProt P08637 17-208); assay: SPR (Biacore); He/Con_3a (FcγRIIIa) divided by He/Con_2b (FcγRIIb)
# T7 construct: extracellular domain; also called FcgRIIIa; 3a; not shown: His tag attached to the C terminus
# [10] = molecular target: T4, FcγRIIb extracellular domain with …; assay: SPR (Biacore T100), antibody captured on antigen peptide chip, FcγR as analyte
# Procedure: (§3) Analysis of interaction between objective antibody and the FcγR was carried out using Biacore T100 (GE Healthcare). HBS-EP+ (GE Healthcare) was used as the running buffer, and the measurement temperature was set to 25° C. Chips produced by immobilizing the antigen peptide by the amine coupling method to a Series S Sencor Chip CM5 (GE Healthcare), or alternatively, chips produced by allowing preliminarily biotinylated antigen peptides to interact with and immobilize onto a Series S Sensor Chip SA (certified) (GE Healthcare) were used. Antibodies of interest were captured onto an antigen peptide-immobilized chip, and allowed to interact to each FcγR diluted with running buffer. To regenerate and repeatedly use the chip, the antibodies captured on the chip were washed off by reacting 10 mM glycine-HCl, pH 1.5.
# [11] = molecular target: T7, FcγRIIIa extracellular domain with …; assay: as above
# Procedure: as §3
# T7 sequence (P08637 17-208): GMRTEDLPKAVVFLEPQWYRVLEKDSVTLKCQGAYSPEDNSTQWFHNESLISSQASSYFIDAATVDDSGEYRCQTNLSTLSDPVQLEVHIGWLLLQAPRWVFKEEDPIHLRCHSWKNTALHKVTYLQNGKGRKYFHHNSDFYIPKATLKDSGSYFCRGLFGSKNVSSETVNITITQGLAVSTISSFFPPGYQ
# T5 sequence (P08637 17-208): as above
# T6 sequence (P08637 17-208 F176V limits assumed): as the sequence (P08637 17-208) above, with F160V counted along it
Binder,relative KD [1] [ratio],relative KD [2] [ratio],relative KD [3] [ratio],relative KD [4] [ratio],relative KD [5] [ratio],relative KD [6] [ratio],relative KD [7] [ratio],relative KD [8] [ratio],He_3a/2b (IIIa/IIb) [9] [ratio],He/Con_2b [10],He/Con_3a [11]
B1,0.4,0.5,0.6,1.1,1.5,0.5,1.1,1.5,,,
B2,0.4,0.2,0.5,1.2,1.3,0.2,1.2,1.3,,,
B3,0.4,0.1,0.8,1,1.3,0.1,1,1.3,,,
B4,,,,,,,,,0.18,"109 relative binding, GpH7-A5/GpH7-B3/GpL16-k0 = 100","19.5 relative binding, GpH7-A5/GpH7-B3/GpL16-k0 = 100"
B5,,,,,,,,,0.69,"103 relative binding, GpH7-A5/GpH7-B3/GpL16-k0 = 100","71 relative binding, GpH7-A5/GpH7-B3/GpL16-k0 = 100"
B6,,,,,,,,,0.59,"193 relative binding, GpH7-A5/GpH7-B3/GpL16-k0 = 100","113 relative binding, GpH7-A5/GpH7-B3/GpL16-k0 = 100"
B7,,,,,,,,,0.66,"116 relative binding, GpH7-A5/GpH7-B3/GpL16-k0 = 100","76.4 relative binding, GpH7-A5/GpH7-B3/GpL16-k0 = 100"
